Assay results as given in the supplement of paper PMC10065799, “High-throughput profiling of sequence recognition by tyrosine kinases and SH2 domains using bacterial peptide display” (eLife, 2023).

Legend:
[1] = target: c-Src SH2; assay: SH2 binding enrichment of the phosphorylated peptide, bacterial display (enrichment ratio); higher = better substrate or ligand; peptides without Tyr show the background
[2] = target: Grb2 SH2 (UniProt P62993); assay: as above
[3] = target: SHP2-C SH2; assay: as above
[4] = target: Hck (UniProt P08631); assay: phosphorylation enrichment, bacterial display (enrichment ratio); higher = better substrate or ligand; peptides without Tyr show the background
Chain of Hck (P08631 whole entry, looked up): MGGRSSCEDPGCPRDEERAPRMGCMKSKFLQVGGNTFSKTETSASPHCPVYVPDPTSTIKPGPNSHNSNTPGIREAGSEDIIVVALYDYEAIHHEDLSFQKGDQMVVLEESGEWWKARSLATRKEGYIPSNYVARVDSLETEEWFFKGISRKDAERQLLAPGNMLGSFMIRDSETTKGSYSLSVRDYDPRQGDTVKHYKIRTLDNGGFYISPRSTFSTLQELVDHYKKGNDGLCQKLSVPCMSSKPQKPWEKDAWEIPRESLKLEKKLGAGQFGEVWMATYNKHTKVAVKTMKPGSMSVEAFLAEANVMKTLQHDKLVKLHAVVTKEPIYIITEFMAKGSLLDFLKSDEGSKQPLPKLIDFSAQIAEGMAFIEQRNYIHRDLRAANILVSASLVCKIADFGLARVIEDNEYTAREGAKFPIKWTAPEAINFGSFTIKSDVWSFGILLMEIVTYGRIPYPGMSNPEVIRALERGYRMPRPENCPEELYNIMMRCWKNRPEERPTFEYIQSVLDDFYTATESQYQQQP

[5] = target: EPHB2 (UniProt P29323); assay: as above
[6] = tested on: AncSZ; assay: as above
[7] = target: Jak2 (UniProt O60674); assay: as above
[8] = target: FGFR3 (UniProt P22607); assay: as above
[9] = target: MERTK (UniProt Q12866); assay: as above
Chain of MERTK (Q12866 whole entry, looked up): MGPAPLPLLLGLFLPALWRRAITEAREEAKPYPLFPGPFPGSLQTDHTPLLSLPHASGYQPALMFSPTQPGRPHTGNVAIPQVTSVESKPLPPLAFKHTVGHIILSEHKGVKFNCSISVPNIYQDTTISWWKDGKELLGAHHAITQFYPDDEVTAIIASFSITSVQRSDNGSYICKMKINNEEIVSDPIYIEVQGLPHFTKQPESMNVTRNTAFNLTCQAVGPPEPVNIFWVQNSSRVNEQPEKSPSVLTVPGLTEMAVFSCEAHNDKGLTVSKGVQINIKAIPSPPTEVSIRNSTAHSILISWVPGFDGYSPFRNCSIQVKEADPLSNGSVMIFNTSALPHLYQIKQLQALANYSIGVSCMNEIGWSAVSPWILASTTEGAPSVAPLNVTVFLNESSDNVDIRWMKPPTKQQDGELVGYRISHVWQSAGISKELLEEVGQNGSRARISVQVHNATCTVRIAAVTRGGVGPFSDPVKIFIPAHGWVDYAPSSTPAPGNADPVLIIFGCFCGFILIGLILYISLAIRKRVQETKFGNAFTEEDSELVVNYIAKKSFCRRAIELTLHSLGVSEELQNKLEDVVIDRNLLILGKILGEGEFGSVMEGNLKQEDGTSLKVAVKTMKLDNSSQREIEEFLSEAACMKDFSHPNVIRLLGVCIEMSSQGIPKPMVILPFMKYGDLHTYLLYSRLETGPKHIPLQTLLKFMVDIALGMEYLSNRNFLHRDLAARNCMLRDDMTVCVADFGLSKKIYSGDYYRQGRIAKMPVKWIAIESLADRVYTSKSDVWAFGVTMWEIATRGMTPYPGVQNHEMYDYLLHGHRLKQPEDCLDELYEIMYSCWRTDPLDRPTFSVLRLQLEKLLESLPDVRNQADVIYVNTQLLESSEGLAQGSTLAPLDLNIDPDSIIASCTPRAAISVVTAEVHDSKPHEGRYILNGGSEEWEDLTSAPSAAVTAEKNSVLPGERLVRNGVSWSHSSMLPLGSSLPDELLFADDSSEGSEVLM

[10] = tested on: c-Src; assay: as above
[11] = target: FGFR1 (UniProt P11362); assay: as above
Chain of FGFR1 (P11362 whole entry, looked up): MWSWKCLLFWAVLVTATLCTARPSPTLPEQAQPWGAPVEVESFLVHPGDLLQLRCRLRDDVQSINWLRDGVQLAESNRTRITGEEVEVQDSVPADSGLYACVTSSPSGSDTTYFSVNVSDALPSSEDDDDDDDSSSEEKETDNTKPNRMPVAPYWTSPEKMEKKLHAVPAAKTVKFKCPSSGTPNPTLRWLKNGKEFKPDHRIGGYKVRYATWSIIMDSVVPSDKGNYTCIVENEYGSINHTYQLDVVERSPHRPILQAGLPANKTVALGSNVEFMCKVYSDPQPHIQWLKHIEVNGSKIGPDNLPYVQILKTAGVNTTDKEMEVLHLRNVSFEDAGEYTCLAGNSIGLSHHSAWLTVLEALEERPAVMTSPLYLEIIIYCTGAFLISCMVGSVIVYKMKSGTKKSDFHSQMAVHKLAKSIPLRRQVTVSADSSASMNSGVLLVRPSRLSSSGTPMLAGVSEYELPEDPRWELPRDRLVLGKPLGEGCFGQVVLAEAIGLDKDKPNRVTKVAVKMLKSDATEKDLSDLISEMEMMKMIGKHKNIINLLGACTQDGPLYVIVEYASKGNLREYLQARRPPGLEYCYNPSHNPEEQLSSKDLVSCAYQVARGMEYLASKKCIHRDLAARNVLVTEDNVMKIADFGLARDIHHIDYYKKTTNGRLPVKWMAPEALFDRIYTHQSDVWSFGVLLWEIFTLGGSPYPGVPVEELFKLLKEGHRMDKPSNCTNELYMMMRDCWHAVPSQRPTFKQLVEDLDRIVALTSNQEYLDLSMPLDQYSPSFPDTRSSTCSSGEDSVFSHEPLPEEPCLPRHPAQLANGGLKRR

[12] = target: Fes (UniProt P07332); assay: as above
Chain of Fes (P07332 whole entry, looked up): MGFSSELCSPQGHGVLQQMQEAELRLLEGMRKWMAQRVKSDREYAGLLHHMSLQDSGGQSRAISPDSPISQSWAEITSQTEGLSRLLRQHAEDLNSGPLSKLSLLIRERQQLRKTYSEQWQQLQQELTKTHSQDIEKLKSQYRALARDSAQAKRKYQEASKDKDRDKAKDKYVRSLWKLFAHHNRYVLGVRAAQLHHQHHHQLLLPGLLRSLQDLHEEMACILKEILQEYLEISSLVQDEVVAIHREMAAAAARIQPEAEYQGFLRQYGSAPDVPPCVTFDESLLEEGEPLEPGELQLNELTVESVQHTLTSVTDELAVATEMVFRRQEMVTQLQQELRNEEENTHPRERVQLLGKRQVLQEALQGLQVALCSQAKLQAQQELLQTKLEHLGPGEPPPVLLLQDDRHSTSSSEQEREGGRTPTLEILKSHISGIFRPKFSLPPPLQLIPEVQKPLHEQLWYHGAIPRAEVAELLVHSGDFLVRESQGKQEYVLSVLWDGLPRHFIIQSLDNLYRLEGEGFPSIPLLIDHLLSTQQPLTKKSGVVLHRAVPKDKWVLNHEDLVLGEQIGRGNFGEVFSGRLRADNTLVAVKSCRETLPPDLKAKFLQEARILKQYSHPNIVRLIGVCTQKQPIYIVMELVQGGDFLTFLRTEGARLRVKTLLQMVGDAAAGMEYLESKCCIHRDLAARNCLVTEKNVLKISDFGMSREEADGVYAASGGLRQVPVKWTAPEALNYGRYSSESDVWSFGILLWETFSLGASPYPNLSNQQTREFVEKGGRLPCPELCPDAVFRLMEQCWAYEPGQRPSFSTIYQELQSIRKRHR

[13] = target: EPHB1 (UniProt P54762); assay: as above
Chain of EPHB1 (P54762 whole entry, looked up): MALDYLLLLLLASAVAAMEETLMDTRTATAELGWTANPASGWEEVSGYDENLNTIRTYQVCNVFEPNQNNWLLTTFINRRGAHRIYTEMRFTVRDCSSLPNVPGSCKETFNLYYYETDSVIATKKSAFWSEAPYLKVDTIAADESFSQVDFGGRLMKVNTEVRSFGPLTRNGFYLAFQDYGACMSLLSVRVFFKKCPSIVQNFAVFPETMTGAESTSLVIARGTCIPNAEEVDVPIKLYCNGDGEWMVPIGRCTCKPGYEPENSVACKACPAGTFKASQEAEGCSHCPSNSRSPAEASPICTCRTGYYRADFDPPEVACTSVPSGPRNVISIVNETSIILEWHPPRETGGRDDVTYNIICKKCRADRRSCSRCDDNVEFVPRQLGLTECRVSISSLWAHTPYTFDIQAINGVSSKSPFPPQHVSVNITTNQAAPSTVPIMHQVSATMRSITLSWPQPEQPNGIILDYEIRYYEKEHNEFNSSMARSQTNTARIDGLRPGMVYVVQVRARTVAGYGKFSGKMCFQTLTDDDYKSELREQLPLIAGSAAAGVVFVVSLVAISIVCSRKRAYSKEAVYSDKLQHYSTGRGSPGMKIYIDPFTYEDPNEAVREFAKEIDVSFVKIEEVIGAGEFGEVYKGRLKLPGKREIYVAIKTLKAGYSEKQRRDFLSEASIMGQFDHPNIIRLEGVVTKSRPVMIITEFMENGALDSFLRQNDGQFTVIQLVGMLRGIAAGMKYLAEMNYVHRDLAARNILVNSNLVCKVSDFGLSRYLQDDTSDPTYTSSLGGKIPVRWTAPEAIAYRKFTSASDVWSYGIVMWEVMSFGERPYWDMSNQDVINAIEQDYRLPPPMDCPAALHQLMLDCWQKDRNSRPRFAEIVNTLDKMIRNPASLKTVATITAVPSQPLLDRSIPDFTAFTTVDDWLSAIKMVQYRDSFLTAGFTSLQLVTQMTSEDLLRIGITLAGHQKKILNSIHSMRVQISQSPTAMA

[14] = tested on: Fer (mouse); assay: as above
[15] = target: Fyn (UniProt P06241); assay: as above
Chain of Fyn (P06241 whole entry, looked up): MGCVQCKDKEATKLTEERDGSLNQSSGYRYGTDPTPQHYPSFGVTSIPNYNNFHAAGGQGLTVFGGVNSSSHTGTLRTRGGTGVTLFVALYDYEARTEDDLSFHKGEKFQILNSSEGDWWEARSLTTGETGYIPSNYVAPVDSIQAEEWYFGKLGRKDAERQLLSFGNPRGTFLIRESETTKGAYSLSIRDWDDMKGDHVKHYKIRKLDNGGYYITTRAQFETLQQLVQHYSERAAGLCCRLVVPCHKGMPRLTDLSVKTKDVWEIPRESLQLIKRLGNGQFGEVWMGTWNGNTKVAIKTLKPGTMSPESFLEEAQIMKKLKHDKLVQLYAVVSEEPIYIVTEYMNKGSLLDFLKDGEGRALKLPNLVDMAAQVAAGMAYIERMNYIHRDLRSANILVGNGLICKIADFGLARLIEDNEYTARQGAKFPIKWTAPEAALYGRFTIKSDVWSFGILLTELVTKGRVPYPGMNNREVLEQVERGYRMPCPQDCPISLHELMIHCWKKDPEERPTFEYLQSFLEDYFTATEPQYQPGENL

[16] = tested on: c-Abl (mouse); assay: as above
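Throughout, for SH2 binding enrichment of the phosphorylated peptide, bacterial display: peptide library displayed on the E. coli surface as eCPX fusions, selected cells deep-sequenced, score is each peptide's frequency after selection divided by its frequency in the input.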
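Throughout, for phosphorylation enrichment, bacterial display: 11-residue human phosphosite peptides and single-mutation variants displayed on the E. coli surface, counted by deep sequencing, each peptide's frequency after selection divided by its frequency in the unselected input library; frequency after pTyr selection over input frequency; kinase dosed for 20-30% of maximal phosphorylation in three min.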

Chain of Grb2 SH2 (P62993 whole entry, looked up): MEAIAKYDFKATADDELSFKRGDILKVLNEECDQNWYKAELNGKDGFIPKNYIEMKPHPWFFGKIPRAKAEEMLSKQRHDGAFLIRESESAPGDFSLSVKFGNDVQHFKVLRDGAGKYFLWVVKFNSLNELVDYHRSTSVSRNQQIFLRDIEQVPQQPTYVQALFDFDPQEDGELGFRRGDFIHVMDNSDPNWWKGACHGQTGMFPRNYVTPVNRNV

| Sequence | SH2 binding enrichment [1] | SH2 binding enrichment [2] | SH2 binding enrichment [3] | phosphorylation enrichment [4] | phosphorylation enrichment [5] | phosphorylation enrichment [6] | phosphorylation enrichment [7] | phosphorylation enrichment [8] | phosphorylation enrichment [9] | phosphorylation enrichment [10] | phosphorylation enrichment [11] | phosphorylation enrichment [12] | phosphorylation enrichment [13] | phosphorylation enrichment [14] | phosphorylation enrichment [15] | phosphorylation enrichment [16] |
| --- | --- | --- | --- | --- | --- | --- | --- | --- | --- | --- | --- | --- | --- | --- | --- | --- |
| LKEIRYPPFTD [ALDH3B2_Y362_H361R_YF] | 0.605 | 0.798 | 0.68 | 0.63 | 0.731 | 2.71 | 2.05 | 1.07 | 0.725 | 0.919 | 1.09 | 2.01 | 0.883 | 1.09 | 0.926 | 1.06 |
| LKGQVDILGRE [ASS1_Y359_Y359D] | 0.595 | 1.01 | 0.582 | 0.575 | 0.696 | 0.803 | 1.26 | 0.638 | 0.663 | 0.764 | 0.578 | 1.07 | 0.539 | 0.598 | 0.559 | 0.658 |
| LKMLVYMDMSK [LRRC7_Y234_L235M] | 0.661 | 0.849 | 0.742 | 0.802 | 0.804 | 1.45 | 1.85 | 0.984 | 0.689 | 0.872 | 1.02 | 2.25 | 1.79 | 0.842 | 0.807 | 1.23 |
| LKTNCYNNGKD [DNMT3B_Y404] | 0.429 | 0.764 | 0.694 | 0.879 | 0.818 | 1.12 | 1.24 | 1.12 | 0.601 | 0.572 | 0.685 | 1.21 | 1.09 | 0.68 | 0.649 | 3.04 |
| LLANAYIFDVQ [L1CAM_Y418_V421D_YF] | 0.913 | 1.15 | 0.99 | 0.598 | 0.838 | 1.73 | 1.73 | 1.17 | 0.718 | 1.03 | 0.874 | 1.84 | 0.933 | 0.755 | 1.09 | 0.896 |
| LLKAGYHGVLR [TTPA_Y100] | 1.05 | 1.45 | 1.25 | 0.453 | 0.562 | 0.964 | 0.903 | 0.679 | 0.631 | 0.906 | 0.646 | 1.35 | 0.686 | 0.671 | 0.693 | 0.926 |
| LLREWYVQDPY [SIX3_Y225_L226V] | 1.36 | 1.05 | 0.856 | 0.328 | 0.675 | 1.18 | 0.798 | 0.771 | 0.44 | 0.641 | 0.597 | 1.05 | 0.598 | 0.566 | 0.531 | 0.674 |
| LLVVLNKFRCF [PSEN1_Y154_Y154N_YF] | 1.35 | 1.7 | 1.34 | 0.837 | 1.11 | 1.82 | 1.66 | 1.18 | 0.795 | 1.05 | 1.1 | 1.88 | 0.951 | 0.951 | 1.02 | 2.08 |
| LLVVLYKYRCY [PSEN1_Y154] | 0.777 | 1.17 | 0.87 | 0.708 | 0.642 | 1.11 | 0.974 | 0.615 | 0.746 | 0.609 | 0.686 | 1.79 | 0.318 | 0.699 | 0.532 | 1.57 |
| LNARHYGGLTG [PGAM2_Y92_E89A] | 0.446 | 0.779 | 0.656 | 0.542 | 0.3 | 0.585 | 0.606 | 0.513 | 0.44 | 0.631 | 0.567 | 0.573 | 0.376 | 0.634 | 0.301 | 0.668 |
| LNEWHYGGLTG [PGAM2_Y92_R90W] | 0.682 | 0.723 | 1.29 | 0.738 | 0.452 | 0.74 | 0.84 | 0.891 | 0.365 | 0.52 | 0.58 | 1.12 | 0.444 | 0.636 | 0.662 | 0.626 |
| LNPDGYKKAFE [CPXM2_Y427_E428K_YF] | 0.488 | 0.945 | 0.578 | 0.54 | 0.793 | 1.02 | 1.68 | 0.833 | 0.727 | 0.827 | 0.866 | 2.1 | 0.727 | 0.67 | 0.495 | 1.28 |
| LNPFIYSLRNR [OR1A1_Y288] | 0.486 | 0.873 | 1.55 | 1.28 | 0.618 | 1.46 | 1.43 | 0.579 | 0.493 | 2.23 | 0.891 | 1.55 | 0.437 | 0.6 | 0.657 | 0.974 |
| LQKPMYEVQWK [KIT_Y553] | 0.522 | 0.771 | 0.633 | 0.788 | 0.912 | 1.29 | 1.42 | 1.49 | 1.28 | 0.617 | 0.851 | 1.32 | 2.63 | 0.83 | 0.81 | 1.36 |
| LQPNNCQFCGG [CSF1R_Y969_Y969C] | 0.709 | 0.943 | 0.865 | 0.987 | 0.711 | 0.929 | 1.05 | 1.21 | 0.785 | 0.647 | 0.752 | 0.858 | 0.735 | 0.348 | 0.752 | 1.07 |
| LRRREYQRQDY [PRKRIP1_Y90] | 0.435 | 0.76 | 0.727 | 0.621 | 0.786 | 0.841 | 0.289 | 0.683 | 0.541 | 0.565 | 0.532 | 0.64 | 0.706 | 0.504 | 0.706 | 0.554 |
| LRSRVYEVPVE [SLC26A3_Y756_N753S] | 3.83 | 0.714 | 0.461 | 1.25 | 1.03 | 1.01 | 0.795 | 0.833 | 1.66 | 0.708 | 0.722 | 0.91 | 0.773 | 2.09 | 0.962 | 0.719 |

| Sequence | SH2 binding enrichment [1] | SH2 binding enrichment [2] | SH2 binding enrichment [3] | phosphorylation enrichment [4] | phosphorylation enrichment [5] | phosphorylation enrichment [6] | phosphorylation enrichment [7] | phosphorylation enrichment [8] | phosphorylation enrichment [9] | phosphorylation enrichment [10] | phosphorylation enrichment [11] | phosphorylation enrichment [12] | phosphorylation enrichment [13] | phosphorylation enrichment [14] | phosphorylation enrichment [15] | phosphorylation enrichment [16] |
| --- | --- | --- | --- | --- | --- | --- | --- | --- | --- | --- | --- | --- | --- | --- | --- | --- |
| LRYDSYSSYCN [SLC20A2_Y433] | 1.24 | 0.65 | 0.449 | 0.949 | 5.07 | 1.32 | 0.865 | 0.849 | 1.38 | 1.27 | 0.619 | 1.12 | 2.74 | 0.577 | 0.837 | 0.824 |
| LRYEVYGGENE [STOX1_Y610] | 1.64 | 0.677 | 0.56 | 0.828 | 0.729 | 1.33 | 1.09 | 0.692 | 0.499 | 0.77 | 0.631 | 1.25 | 0.765 | 0.623 | 0.615 | 0.775 |
| LSGVIYVILRK [PMP22_Y153] | 0.841 | 1.89 | 1.4 | 0.513 | 0.23 | 1.01 | 0.633 | 1.11 | 0.364 | 0.484 | 0.443 | 0.823 | 0.46 | 0.504 | 0.279 | 0.923 |
| LTFDEYRNNSQ [ANXA3_Y216_I219N] | 0.417 | 0.654 | 0.616 | 0.443 | 0.682 | 0.762 | 1.38 | 0.632 | 0.4 | 0.753 | 0.573 | 1.24 | 0.431 | 0.553 | 0.675 | 1.13 |
| LTTEVYFPSIK [C5orf64_Y60_A57T] | 0.564 | 0.911 | 0.885 | 0.541 | 0.628 | 0.946 | 0.703 | 0.661 | 0.562 | 0.563 | 0.775 | 0.895 | 0.436 | 0.482 | 0.77 | 0.766 |
| LVMFIYAISGM [SCN1A_Y1684_F1687S] | 0.569 | 0.792 | 1.4 | 0.727 | 0.927 | 1.2 | 1.17 | 1.01 | 0.725 | 0.85 | 0.48 | 1.99 | 0.931 | 0.813 | 0.442 | 1.17 |
| LVSCTYQLARG [FGFR2_Y608] | 0.515 | 0.894 | 0.7 | 0.483 | 0.62 | 1.23 | 0.983 | 0.698 | 0.443 | 0.783 | 0.452 | 1.08 | 0.536 | 0.605 | 0.579 | 0.91 |
| LWKWRYEELKE [CCDC102B_Y299_K298R] | 2.08 | 1.29 | 1.36 | 0.561 | 1.09 | 1.34 | 2.73 | 1.02 | 0.909 | 0.715 | 0.503 | 2.5 | 1.28 | 0.771 | 0.629 | 1.7 |
| LWQSIYNLEAE [TNNT2_Y251] | 0.54 | 1.09 | 1.48 | 7.01 | 0.791 | 1.33 | 0.921 | 1.05 | 0.664 | 6.57 | 0.66 | 1.45 | 0.793 | 0.544 | 12.4 | 0.881 |
| MAFDRYVAICA [OR52J3_Y125_V128I] | 0.974 | 1.08 | 0.635 | 0.555 | 0.659 | 0.939 | 0.726 | 0.708 | 0.386 | 0.394 | 0.586 | 0.808 | 1.12 | 0.562 | 0.454 | 0.362 |
| MARDIYQASYY [LTK_Y672_R673Q] | 0.919 | 1.12 | 1.03 | 6.75 | 3.03 | 1.04 | 0.78 | 1.19 | 5.18 | 6.26 | 1.41 | 0.879 | 2.55 | 1.97 | 5.45 | 3.09 |
| MENFIYESMRY [CYP19A1_Y361] | 0.627 | 0.819 | 0.553 | 6.76 | 3.32 | 1.23 | 0.839 | 0.728 | 2.31 | 6.18 | 0.569 | 3.6 | 5.46 | 13.1 | 8.43 | 1.25 |
| MFDKEYFSVHN [MET_Y1234_YF] | 0.548 | 0.746 | 0.713 | 0.513 | 0.566 | 1.31 | 1.46 | 1.31 | 0.393 | 0.632 | 1.84 | 1.03 | 0.605 | 0.451 | 0.488 | 0.782 |
| MFVKSYTIHFS [F5_Y2153_YF] | 0.494 | 0.742 | 0.753 | 0.495 | 0.579 | 1 | 1.05 | 0.736 | 0.456 | 0.48 | 0.49 | 1.19 | 0.565 | 0.464 | 0.482 | 0.851 |
| MGGSLYFSYPD [HIKESHI_Y55_V54L] | 0.656 | 0.77 | 0.605 | 3.45 | 5.75 | 1.49 | 2.11 | 3.12 | 7.06 | 4.41 | 3.4 | 1.26 | 4.44 | 0.802 | 3.46 | 1.16 |
| MGSYNYLGFPR [SPTLC2_Y178_A182P] | 2.84 | 0.921 | 1.92 | 1.39 | 2.77 | 0.806 | 3.81 | 1.48 | 6.35 | 0.735 | 2.29 | 0.748 | 5.53 | 0.59 | 0.511 | 1.04 |
